US20240350835A1 (AMBRX, published 2024)

Molecular target: prostate specific membrane antigen (PSMA) (UniProt Q04609 1-750, limits assumed)
Experiment: cell-based or functional assay

Chain of prostate specific membrane antigen (PSMA) (Q04609 whole entry): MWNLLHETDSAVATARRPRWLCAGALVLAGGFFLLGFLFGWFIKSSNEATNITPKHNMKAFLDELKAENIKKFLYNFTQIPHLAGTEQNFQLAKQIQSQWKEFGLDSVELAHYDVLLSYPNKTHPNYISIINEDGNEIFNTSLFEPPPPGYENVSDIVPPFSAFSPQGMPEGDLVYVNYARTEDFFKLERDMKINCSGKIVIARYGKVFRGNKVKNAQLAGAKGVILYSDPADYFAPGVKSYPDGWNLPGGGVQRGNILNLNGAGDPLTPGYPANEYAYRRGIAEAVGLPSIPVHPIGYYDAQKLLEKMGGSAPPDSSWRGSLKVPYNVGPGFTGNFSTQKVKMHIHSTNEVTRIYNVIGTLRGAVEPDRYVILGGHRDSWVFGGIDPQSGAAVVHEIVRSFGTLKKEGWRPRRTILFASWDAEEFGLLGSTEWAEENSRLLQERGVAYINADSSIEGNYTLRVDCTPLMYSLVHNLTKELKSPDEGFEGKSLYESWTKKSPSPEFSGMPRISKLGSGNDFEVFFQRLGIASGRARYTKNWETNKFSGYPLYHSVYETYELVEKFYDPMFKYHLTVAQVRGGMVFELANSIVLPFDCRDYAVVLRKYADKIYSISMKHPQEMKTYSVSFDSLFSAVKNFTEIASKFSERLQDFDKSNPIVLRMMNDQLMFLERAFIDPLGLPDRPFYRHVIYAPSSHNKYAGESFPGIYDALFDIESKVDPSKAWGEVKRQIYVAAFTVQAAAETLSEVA

Row | Binder | Cell Killing (%), C4-2 cell line [%] | IC50 (nM), in vitro cell killing in C4-2 cell line (Cell Titer Glo, 96 h) [nM]
1 | Chimeric Anti-PSMA Antibody ADC, MMAF payload, Non-Cleavable (PEG3) linker (antibody, human IgG1, kappa, V domains shown, para-acetyl phenylalanine (pAF) at position A114 (Kabat numbering; first residue of the heavy chain constant region), conjugated to non-cleavable (PEG3) MMAF drug-linker) VH: EVQLQQSGPELVKPGTSVRISCKTSGYTFTEYTIHWVKQSHGKSLEWIGNINPNNGGTTYNQKFEDKATLTVDKSSSTAYMELRSLTSEDSAVYYCAAGWNFDYWGQGTTLTVSS VL: DIVMTQSHKFMSTSVGDRVSIICKASQDVGTAVDWYQQKPGQSPKLLIYWASTRHTGVPDRFTGSGSGTDFTLTITNVQSEDLADYFCQQYNSYPLTFGAGTKVEIKR | 89.5 | 0.295
2 | Chimeric Anti-PSMA Antibody ADC, MMAE payload, Short Cleavable (Valine-Citruline-Acetyl) linker (antibody, human IgG1, kappa, V domains shown, para-acetyl phenylalanine (pAF) at position A114 (Kabat numbering; first residue of the heavy chain constant region), conjugated to short cleavable (Valine-Citruline-Acetyl) MMAE drug-linker) VH: EVQLQQSGPELVKPGTSVRISCKTSGYTFTEYTIHWVKQSHGKSLEWIGNINPNNGGTTYNQKFEDKATLTVDKSSSTAYMELRSLTSEDSAVYYCAAGWNFDYWGQGTTLTVSS VL: DIVMTQSHKFMSTSVGDRVSIICKASQDVGTAVDWYQQKPGQSPKLLIYWASTRHTGVPDRFTGSGSGTDFTLTITNVQSEDLADYFCQQYNSYPLTFGAGTKVEIKR | 82.5 | 0.425
3 | Chimeric Anti-PSMA Antibody ADC, MMAF payload, Short Cleavable (Valine-Citruline-Acetyl) linker (antibody, human IgG1, kappa, V domains shown, para-acetyl phenylalanine (pAF) at position A114 (Kabat numbering; first residue of the heavy chain constant region), conjugated to short cleavable (Valine-Citruline-Acetyl) MMAF drug-linker) VH: EVQLQQSGPELVKPGTSVRISCKTSGYTFTEYTIHWVKQSHGKSLEWIGNINPNNGGTTYNQKFEDKATLTVDKSSSTAYMELRSLTSEDSAVYYCAAGWNFDYWGQGTTLTVSS VL: DIVMTQSHKFMSTSVGDRVSIICKASQDVGTAVDWYQQKPGQSPKLLIYWASTRHTGVPDRFTGSGSGTDFTLTITNVQSEDLADYFCQQYNSYPLTFGAGTKVEIKR | 94.5 | 0.049
4 | Chimeric Anti-PSMA Antibody ADC, MMAE payload, Non-Cleavable (PEG3) linker (antibody, human IgG1, kappa, V domains shown, para-acetyl phenylalanine (pAF) at position A114 (Kabat numbering; first residue of the heavy chain constant region), conjugated to non-cleavable (PEG3) MMAE drug-linker) VH: EVQLQQSGPELVKPGTSVRISCKTSGYTFTEYTIHWVKQSHGKSLEWIGNINPNNGGTTYNQKFEDKATLTVDKSSSTAYMELRSLTSEDSAVYYCAAGWNFDYWGQGTTLTVSS VL: DIVMTQSHKFMSTSVGDRVSIICKASQDVGTAVDWYQQKPGQSPKLLIYWASTRHTGVPDRFTGSGSGTDFTLTITNVQSEDLADYFCQQYNSYPLTFGAGTKVEIKR | 62.5 | 10.2
5 | Chimeric Anti-PSMA Antibody ADC, MMAF payload, Cleavable (Val-Citruline-PEG1) linker (antibody, human IgG1, kappa, V domains shown, para-acetyl phenylalanine (pAF) at position A114 (Kabat numbering; first residue of the heavy chain constant region), conjugated to cleavable (Val-Citruline-PEG1) MMAF drug-linker) VH: EVQLQQSGPELVKPGTSVRISCKTSGYTFTEYTIHWVKQSHGKSLEWIGNINPNNGGTTYNQKFEDKATLTVDKSSSTAYMELRSLTSEDSAVYYCAAGWNFDYWGQGTTLTVSS VL: DIVMTQSHKFMSTSVGDRVSIICKASQDVGTAVDWYQQKPGQSPKLLIYWASTRHTGVPDRFTGSGSGTDFTLTITNVQSEDLADYFCQQYNSYPLTFGAGTKVEIKR | 89.5 | 0.047
6 | Humanized Anti-PSMA Antibody Variant 1 ADC, MMAE payload, Non-Cleavable (PEG3) linker (antibody, human IgG1, kappa, V domains shown, para-acetyl phenylalanine (pAF) at position A114 (Kabat numbering; first residue of the heavy chain constant region), conjugated to non-cleavable (PEG3) MMAE drug-linker) VH: QVQLVQSGAEVKKPGASVKVSCKASGYTFTEYTIHWVRQAPGQRLEWMGNINPNNGGTTYNQKFEDRVTITRDTSASTAYMELSSLRSEDTAVYYCAAGWNFDYWGQGTTLTVSS VL: DIQLTQSPSFLSASVGDRVTITCKASQDVGTAVDWYQQKPGKAPKLLIYWASTRHTGVPSRFSGSGSGTEFTLTISSLQPEDFATYYCQQYNSYPLTFGGGTKVEIKR | 64.5 | 11.3
7 | Humanized Anti-PSMA Antibody Variant 1 ADC, MMAE payload, Short Cleavable (Valine-Citruline-Acetyl) linker (antibody, human IgG1, kappa, V domains shown, para-acetyl phenylalanine (pAF) at position A114 (Kabat numbering; first residue of the heavy chain constant region), conjugated to short cleavable (Valine-Citruline-Acetyl) MMAE drug-linker) VH: QVQLVQSGAEVKKPGASVKVSCKASGYTFTEYTIHWVRQAPGQRLEWMGNINPNNGGTTYNQKFEDRVTITRDTSASTAYMELSSLRSEDTAVYYCAAGWNFDYWGQGTTLTVSS VL: DIQLTQSPSFLSASVGDRVTITCKASQDVGTAVDWYQQKPGKAPKLLIYWASTRHTGVPSRFSGSGSGTEFTLTISSLQPEDFATYYCQQYNSYPLTFGGGTKVEIKR | 81.5 | 0.542
8 | Humanized Anti-PSMA Antibody Variant 2 ADC, MMAE payload, Short Cleavable (Valine-Citruline-Acetyl) linker (antibody, human IgG1, kappa, V domains shown, para-acetyl phenylalanine (pAF) at position A114 (Kabat numbering; first residue of the heavy chain constant region), conjugated to short cleavable (Valine-Citruline-Acetyl) MMAE drug-linker) VH: QVQLVQSGAEVKKPGASVKVSCKASGYTFTEYTIHWVRQAPGQRLEWMGNINPNNGGTTYNQKFEDRVTITRDTSASTAYMELSSLRSEDTAVYYCAAGWNFDYWGQGTTLTVSS VL: DIQLTQSPSFLSASVGDRVTITCKASQDVGTAVDWYQQKPGKAPKLLIYWASTRHTGVPSRFSGSGSGTEFTLTISSLQSEDFATYYCQQYNSYPLTFGGGTKVEIKR | 81.5 | 0.52
